T1: Nectin-4 on MDA-MB-468 cells (human, UniProt Q96NY8 32-510)
T1 construct: whole, on cells; also called Nectin-4 (on-cell)
T1 sequence (looked up): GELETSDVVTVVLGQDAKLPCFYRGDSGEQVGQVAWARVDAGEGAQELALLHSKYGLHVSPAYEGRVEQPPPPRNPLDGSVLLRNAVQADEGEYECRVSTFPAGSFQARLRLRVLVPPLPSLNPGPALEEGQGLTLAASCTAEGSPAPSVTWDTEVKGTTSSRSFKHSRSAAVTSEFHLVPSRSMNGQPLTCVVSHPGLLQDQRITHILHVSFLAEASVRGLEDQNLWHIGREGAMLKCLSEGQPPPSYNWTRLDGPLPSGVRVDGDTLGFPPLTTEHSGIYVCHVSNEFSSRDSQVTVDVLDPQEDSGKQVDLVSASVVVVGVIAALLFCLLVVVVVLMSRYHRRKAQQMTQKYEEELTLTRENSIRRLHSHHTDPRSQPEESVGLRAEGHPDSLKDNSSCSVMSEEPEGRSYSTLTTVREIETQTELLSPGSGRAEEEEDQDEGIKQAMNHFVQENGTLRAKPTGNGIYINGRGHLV

T2: recombinant human Nectin-4 (Acro Biosystems) (human, UniProt Q96NY8 32-349)
T2 construct: Bought recombinant antigen used as analyte in SPR; also called PVRL4
T2 sequence (looked up): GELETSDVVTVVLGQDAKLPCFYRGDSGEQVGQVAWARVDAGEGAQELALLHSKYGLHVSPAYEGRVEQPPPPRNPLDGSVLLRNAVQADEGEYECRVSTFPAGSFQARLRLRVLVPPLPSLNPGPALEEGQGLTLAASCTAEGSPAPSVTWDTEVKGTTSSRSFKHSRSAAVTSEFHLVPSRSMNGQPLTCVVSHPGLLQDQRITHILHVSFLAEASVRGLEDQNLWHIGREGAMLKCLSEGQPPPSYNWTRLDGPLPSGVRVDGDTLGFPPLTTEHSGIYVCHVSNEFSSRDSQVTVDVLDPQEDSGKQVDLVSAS

T3: recombinant cynomolgus Nectin-4 (Acro Biosystems) (cynomolgus, UniProt A0A2K5WES1 32-349)
T3 construct: Bought recombinant antigen used as analyte in SPR; also called Cyno Nectin-4
T3 sequence: T2 sequence (looked up) with V39A, I230V

B1: NTX1105 (VH0/Vκ0) parental chimeric anti-Nectin-4 antibody, clone-11 (VH0/Vκ0)-hIgG1 (antibody, V domains shown)
VH: QVQLQQSGPELVKPETSVKISCKASGYTFTSYYIHWVKQRPGQGLEWIGWIYPGNVNTKYNERFKGKATLTADKSSNTAHMQLTSLTSEDSAVYFCARSNPYVMDYWGQGTSVTVSS
VL: SIVMTQTPKFLLVSAGDRVTITCKASQSVNNDVAWYQQKPGLSPELLMYYASNRFTGVPDRFTGSGYGTDFTFTISSVQAEDLAIYFCQQAYRSPYTFGGGTKLEIQR
notes: Tested from supernatants of transfected cell cultures; also called chimeric antibody; parental mAb
B2: NTX1105 humanized variant VH4/Vκ4 (antibody, V domains shown)
VH: QVQLVQSGSELKKPGASVKVSCKASGYTFTSYYIHWVRQAPGQGLEWIGWIYPGNVNTKYNERFKGRVTITADKSTNTAYMELSSLRSEDTAVYYCARSNPYVMDYWGQGTSVTVSS
VL: DIQMTQSPSTLSASVGDRVTITCRASQSVNNDVAWYQQKPGKAPKLLMYYASNRFTGVPDRFSGSGYGTDFTLTISSLQAEDLAIYFCQQAYRSPYTFGQGTKLEIK
notes: Humanized IgG
B3: NTX1105 humanized variant VH5/Vκ4 (antibody, V domains shown)
VH: B2 VH with I48M, K65Q, N77S
VL: B2 VL
notes: Humanized IgG
B4: NTX1105 humanized variant VH4/Vκ1 (antibody, V domains shown)
VH: B2 VH
VL: B2 VL with D1S, Q3V, T10F, S12L, V15A, R24K, K42L, K45E, S63T
notes: Humanized IgG
B5: NTX1105 humanized variant VH5/Vκ5 (antibody, V domains shown)
VH: B2 VH with I48M, K65Q, N77S
VL: B2 VL with L83V, I85V
notes: Humanized IgG; also called H5K5
B6: NTX1105 humanized variant VH4/Vκ3 (antibody, V domains shown)
VH: B2 VH
VL: B2 VL with R24K
notes: Humanized IgG
B7: NTX1105 humanized variant VH4/Vκ5 (antibody, V domains shown)
VH: B2 VH
VL: B2 VL with L83V, I85V
notes: also called NTX1105 (H4/k5); H4K5
B8: NTX1105 (H4K5) ADC, conjugated to MMAE at the same DAR as PADCEV (antibody, V domains shown)
VH: B2 VH
VL: B2 VL with L83V, I85V
notes: also called NTX1105-MMAE; NTX1105-MC-VC-PAB-MMAE DAR4

Experimental findings from patent publication US20260014269A1 (NECTIN THERAPEUTICS, published 2026) are described below.

Substitutions are numbered along the chain they refer to.

The target in one experiment is T1, Nectin-4 on MDA-MB-468 cells. The experiment is described as follows: flow cytometry staining of MDA-MB-468 cells, anti-human IgG Fab Alexa Fluor 647 detection. In general terms: Flow cytometry measures light scatter and fluorescence of single cells or particles in a stream.
What is called EC50 is the concentration that produces a half-maximal response. A low value points to an effect from little substance. In the case of Enfortumab-vedotin (PADCEV) (antibody), the concentration giving a half-maximal response (EC50) turned out to be 0.01 nM and the fold stronger EC-50 than NTX1105 conjugated to MMAE came out at 20 fold.

Another experiment has as its target T2, recombinant human Nectin-4 (Acro …). The experiment is described as follows: SPR, Biacore T200 single cycle kinetics at 25 C, IgG from culture supernatant, Nectin-4 as analyte. Here is the method:
(§1) In order to assess the binding of all of the variants to human or cynomolgus Nectin-4 antigen and select lead humanized IgGs with the closest affinity to the chimeric (VH0/Vκ0) antibody, single cycle kinetic was performed on supernatants from transfected cell cultures. Kinetic experiments were performed at 25° C. on a Biacore T200 running Biacore T200Control software V2.0.1 and Evaluation software V3.0 (Cytiva, Marlborough, USA). Single cycle kinetic data was obtained using recombinant human (Acro Biosystems, Newark, USA) or cynomolgus Nectin-4 (Acro Biosystems, Newark, USA) as the analyte injected at a flow rate of 40 μl/min to minimize any potential mass transfer effects. A four point, two-fold dilution range from 1.25 nM to 10 nM of antigen in running buffer was used without regeneration between each concentration. The association phases were monitored for 150 seconds for each of the four injections of increasing concentrations of antigen and a single dissociation phase was measured for 250 seconds following the last injection of antigen (in order to improve fit the dissociation was cropped to 175 seconds for human Nectin-4). Regeneration of the sensor chip surface was conducted using a single injection of 3 M MgCl₂. Based on relative KD from Biacore single cycle kinetics analysis on supernatants, six humanized variants (VH4/Vκ1, VH4/Vκ3, VH4/Vκ4, VH4/Vκ5, VH5/Vκ4 and VH5/Vκ5) were selected as lead IgGs for scaled-up production and purification.
A general note: SPR reads the build-up and loss of mass on a sensor chip optically.
One may read the Kd as the equilibrium constant for the complex coming apart. Turning to B1, the Kd was determined as 10.9 nM.

Consider B2, for which the Kd worked out at 18 nM.

For the molecule B3, the Kd worked out at 17.7 nM.

As for B4, the dissociation constant Kd worked out at 15.4 nM.

For the molecule B5, the Kd is 11.5 nM.

Turning to B6, the Kd was found to be 15.5 nM.

B7: the Kd stood at 12.2 nM.

For a further experiment, the target named is T3, recombinant cynomolgus Nectin-4 (Acro …). The experiment is described as above. Here is the method:
as §1
In the case of B1, the Kd was 12.1 nM.

Consider B2, for which the Kd was found to be 21.3 nM.

With B3, the Kd worked out at 19.2 nM.

Turning to B4, the Kd amounted to 19.3 nM.

Consider B5, for which the equilibrium dissociation constant (Kd) was 12.7 nM.

Turning to B6, the Kd was 19.4 nM.

With B7, the Kd was determined as 13.7 nM.

A further experiment has as its target T1, Nectin-4 on MDA-MB-468 cells. Kind of experiment: flow cytometry on MDA-MB-468 cells, 3-fold dilutions from 3 ug/ml, detection with Alexa Fluor 647 Fab goat anti-human IgG (H+L); y axis % Bound. As for the experimental part:
Binding was evaluated on MDA-MB-468 cells. Briefly, 5*10+ cells per well were stained using either PADCEV or NTX1105 conjugated to MMAE at the same DAR as PADCEV. The ADCs were added at concentrations starting 3 μg/ml using 3-fold dilutions. […] After 72 hours, the assay was harvested and tumor cell killing was evaluated using CellTiter-Glo® 2.0 Cell Viability Assay-(Promega G9242).
For orientation: EC50 (read off the curve) means the midpoint of the concentration-response curve. Turning to B8, the “EC50 (read off the curve)” value is approximately 0.01 µg/mL.
